In general, Kd refers to a measure of binding affinity in units of concentration. A high value points to weaker binding.

For the experiment, the target named is Unp-CTD (Saccharomyces cerevisiae, synthetic peptide, N-terminal FAM label, unphosphorylated; consensus RNAPII Rpb1 CTD heptad x3). Briefly: FP; unphosphorylated CTD peptide.

B1: MBP-Asr1 (natural protein)
chain: MEECPICLADDQEGEQFGCLNVCGHKFHLNCIREWHKYSINLKCPICRVESTHLEVGEGQHALSINLKMGFMIKNAIDYVGAETTNERNEDDTGEQDQEIEFLSERLRGTLVMDTIKIIQCSICGDTDVSRLSLYCQDCEAIYHETCLRGLACEVGDRNTWQECTDCRSNALLELRMGAISSQLASYDSRNSMIFAGELRDKHSVKTQQMYEQIRNAKHKIQMHVRRALDRYPLPLLRFKDAYKHVNKQVSRKLYRLSDNKYLPDQYDYDSLARTGVHTELLIYCHDE
On to B1, for which binding was put at a Kd of 4.06 mM.
